Data on 9 proteins can be found in US20120100582A1 (DSM IP ASSETS B V, published 2012).

B1: γ-PLE with V263D mutation (enzyme)
chain: GQPASPPVVDTAQGRVLGKYVSLEGLAQPVAVFLGVPFAKPPLGSLRFAPPQPAEPWSFVKNTTSYPPMCCQDPVVEQMTSDLFTNGKERLTLEFSEDCLYLNIYTPADLTKRGRLPVMVWIHGGGLVLGGAPMYDGVVLAAHENVVVVAIQYRLGIWGFFSTGDEHSRGNWGHLDQVAALHWVQENIANFGGDPGSVTIFGESAGGESVSVLVLSPLAKNLFHRAISESGVALTVALVRKDMKAAAKQIAVLAGCKTTTSADFVHCLRQKSEDELLDLTLKMKFLTLDFHGDQRESHPFLPTVVDGVLLPKMPEEILAEKDFNTVPYIVGINKQEFGWLLPTMMGFPLSEGKLDQKTATSLLWKSYPIANIPEELTPVATDKYLGGTDDPVKKKDLFLDLMGDVVFGVPSVTVARQHRDAGAPTYMYEFQYRPSFSSDKKPKTVIGDHGDEIFSVFGFPLLKGDAPEEEVSLSKTVMKFWANFARSGNPNGEGLPHWPMYDQEEGYLQIGVNTQAAKRLKGEEVAFWNDLLSKEAAKKPPKIKHAEL
notes: Monomeric mutant; also called γPLE-V263D
B2: PLE2 with V263D mutation (enzyme)
chain: GQPASPPVVDTAQGRVLGKYVSLEGLAQPVAVFLGVPFAKPPLGSLRFAPPQPAEPWSFVKNTTSYPPMCCQDPVVEQMTSDLFTNGKERLTLEFSEDCLYLNIYTPADLTKRGRLPVMVWIHGGGLVLGGAPMYDGVVLAAHENVVVVAIQYRLGIWGFFSTGDEHSRGNWGHLDQVAALHWVQENIANFGGDPGSVTIFGESAGGESVSVLVLSPLAKNLFHRAISESGVALTVALVRKDMKAAAKQIAVLAGCKTTTSADFVHCLRQKSEDELLDLTLKMKFLTLDFHGDQRESHPFLPTVVDGVLLPKMPEEILAEKDFNTVPYIVGINKQEFGWLLPTMMGFPLSEGKLDQKTATSLLWKSYPIANIPEELTPVATDKYLGGTDDPVKKKDLFLDLMGDVVFGVPSVTVARQHRDAGAPTYMYEFQYRPSFSSDKKPKTVIGDHGDEIFSVFGAPFLRGDAPEEEVSLSKTVMKFWANFARSGNPNGEGLPHWPMYDQEEGYLQIGVNTQAAKRLKGEEVAFWNDLLSKEAAKKPPKIKHAEL
notes: Monomeric mutant; also called PLE2-V263D
B3: PICE with V263D mutation (enzyme)
chain: GQPASPPVVDTAQGRVLGKYVSLEGLAQPVAVFLGVPFAKPPLGSLRFAPPQPAEPWSFVKNTTSYPPMCCQDPVAGQMTSDLFTNGKERLIPEFSEDCLYLNIYTPADLTKRGRLPVMVWIHGGGLVVGGASTYDGLALAAHENVVVVAIQYRLGIWGFFSTGDEHSRGNWGHLDQVAALHWVQENIANFGGDTGSVTIFGESAGGESVSVLVLSPLAKNLFHRAISESGVALTAGLVRKDMKAAAKQIAVLAGCKTTTSADFVHCLRQKSEDELLDLTLKMKFLTLDLHGDPRESHPFLPTVVDGVLLPKMPEEILAEKDFNTVPYIVGINKQEFGWLLPTMMGFPLSEGKLDQKTATSLLWKSFPITNIPEELTPVATDKYLGGTDDPVKKKDLFLDLMGDVVFGVPSVTVARQHRDAGAPTYMYEFQYRPSFSSDKKPKTVIGDHGDEIFSVFGFPLLKGDAPEEEVSLSKTVMKFWANFARSGNPNGEGLPHWPMYDQEEGYLQIGVNTQAAKRLKGEEVAFWNDLLSKEAAKKPPKIKHAEL
notes: Monomeric mutant; also called PICE-V263D
B4: PLE4 with V263D mutation (enzyme)
chain: GQPASPPVVDTAQGRVLGKYVSLEGLAQPVAVFLGVPFAKPPLGSLRFAPPQPAEPWSFVKNTTSYPPMCCQDPVAGQMTSDLFTNGKERLIPEFSEDCLYLNIYTPADLTKRGRLPVMVWIHGGGLVVGGASTYDGLALAAHENVVVVAIQYRLGIWGFFSTGDEHSRGNWGHLDQVAALHWVQENIANFGGDPGSVTIFGESAGGESVSVLVLSPLAKNLFHRAISESGVAFTAGLVRKDMKAAAKQIAVLAGCKTTTSADFVHCLRQKSEDELLDLTLKMKPLTLDLHGDPRESHPFLTTVVDGVLLPKMPEEILAEKDFNTVPYIVGINKQEFGWLLPTMMGFPLSEGKLDQKTATSLLWKSYPIANIPEELTPVATDKYLGGTDDPVKKKDLFLDLMGDVVFGVPSVTVARQHRDAGAPTYMYEFQYRPSFSSDKKPKTVIGDHGDEIFSVFGAPFLRGDAPEEEVSLSKTVMKFWANFARSGNPNGEGLPHWPMYDQEEGYLQIGVNTQAAKRLKGEEVAFWNDLLSKEAAKKPPKIKHAEL
notes: Monomeric mutant; also called PLE4-V263D
B5: APLE with V263D mutation (enzyme)
chain: GQPASPPVVDTAQGRVLGKYVSLEGLAQPVAVFLGVPFAKPPLGSLRFAPPQPAEPWSFVKNTTSYPPMCCQEPIGGQMLSDLFTNRKERLIPEFSEDCLYLNIYTPADLTKRGRLPVMVWIHGGGLVVGGASTYDGLALAAHENVVVVAIQYRLGIWGFFSTGDEHSRGNWGHLDQVAALHWVQENIANFGGDPGSVTIFGESAGGESVSVLVLSPLAKNLFHRAISESGVAFTAGLVRKDMKAAAKQIAVLAGCKTTTSADFVHCLRQKSEDELLDLTLKMKFFALDLHGDPRESHPFLTTVVDGVLLPKMPEEILAEKDFNTVPYIVGINKQEFGWLLPTMMGFPLSEGKLDQKTATSLLWKSYPIANIPEELTPVATDKYLGGTDDPVKKKDLFLDLMGDVVFGVPSVTVARQHRDAGAPTYMYEFQYRPSFSSDKKPKTVIGDHGDEIFSVFGFPLLKGDAPEEEVSLSKTVMKFWANFARSGNPNGEGLPHWPMYDQEEGYLQIGVNTQAAKRLKGEEVAFWNDLLSKEAAKKPPKIKHAEL
notes: Monomeric mutant, tested in E. coli cleared lysate; also called APLE-V263D; mutant, monomeric APLE
B6: PLE3 with V263D mutation (enzyme)
chain: GQPASPPVVDTAQGRVLGKYVSLEGLAQPVAVFLGVPFAKPPLGSLRFAPPQPAEPWSFVKNTTSYPPMCCQEPIGGQMLSDLFTNRKERLIPEFSEDCLYLNIYTPADLTKRGRLPVMVWIHGGGLVVGGASTYDGLALAAHENVVVVAIQYRLGIWGFFSTGDEHSRGNWGHLDQVAALHWVQENIANFGGDPGSVTIFGESAGGESVSVLVLSPLAKNLFHRAISESGVAFTAGLVRKDMKAAAKQIAVLAGCKTTTSADFVHCLRQKSEDELLDLTLKMKPLTLDLHGDPRESHPFLTTVVDGVLLPKMPEEILAEKDFNTVPYIVGINKQEFGWLLPTMMGFPLSEGKLDQKTATSLLWKSYPIANIPEELTPVATDKYLGGTDDPVKKKDLFLDLMGDVVFGVPSVTVARQHRDAGAPTYMYEFQYRPSFSSDKKPKTVIGDHGDEIFSVFGFPLLKGDAPEEEVSLSKTVMKFWANFARSGNPNGEGLPHWPMYDQEEGYLQIGVNTQAAKRLKGEEVAFWNDLLSKEAAKKPPKIKHAEL
notes: Monomeric mutant; also called PLE3-V263D
B7: PLE5 with V263D mutation (enzyme)
chain: GQPASPPVVDTAQGRVLGKYVSLEGLAQPVAVFLGVPFAKPPLGSLRFAPPQPAEPWSFVKNTTSYPPMCCQDPVAGQMTSDLFTNGKERLIPEFSEDCLYLNIYTPADLTKRGRLPVMVWIHGGGLVVGGASTYDGLALAAHENVVVVAIQYRLGIWGFFSTGDEHSRGNWGHLDQVAALHWVQENIANFGGDPGSVTIFGESAGGESVSVLVLSPLAKNLFHRAISESGVAFTAGLVRKDMKAAAKQIAVLAGCKTTTSADFVHCLRQKSEDELLDLTLKMKFFALDLHGDPRESHPFLTTVVDGVLLPKMPEEILAEKDFNTVPYIVGINKQEFGWLLPTMMGFPLSEGKLDQKTATSLLWKSYPIANIPEELTPVATDKYLGGTDDPVKKKDLFLDLMGDVVFGVPSVTVARQHRDAGAPTYMYEFQYRPSFSSDKKPKTVIGDHGDEIFSVFGAPFLRGDAPEEEVSLSKTVMKFWANFARSGNPNGEGLPHWPMYDQEEGYLQIGVNTQAAKRLKGEEVAFWNDLLSKEAAKKPPKIKHAEL
notes: Monomeric mutant; also called PLE5-V263D
B8: γPLE wild-type (enzyme)
chain: GQPASPPVVDTAQGRVLGKYVSLEGLAQPVAVFLGVPFAKPPLGSLRFAPPQPAEPWSFVKNTTSYPPMCCQDPVVEQMTSDLFTNGKERLTLEFSEDCLYLNIYTPADLTKRGRLPVMVWIHGGGLVLGGAPMYDGVVLAAHENVVVVAIQYRLGIWGFFSTGDEHSRGNWGHLDQVAALHWVQENIANFGGDPGSVTIFGESAGGESVSVLVLSPLAKNLFHRAISESGVALTVALVRKDMKAAAKQIAVLAGCKTTTSAVFVHCLRQKSEDELLDLTLKMKFLTLDFHGDQRESHPFLPTVVDGVLLPKMPEEILAEKDFNTVPYIVGINKQEFGWLLPTMMGFPLSEGKLDQKTATSLLWKSYPIANIPEELTPVATDKYLGGTDDPVKKKDLFLDLMGDVVFGVPSVTVARQHRDAGAPTYMYEFQYRPSFSSDKKPKTVIGDHGDEIFSVFGFPLLKGDAPEEEVSLSKTVMKFWANFARSGNPNGEGLPHWPMYDQEEGYLQIGVNTQAAKRLKGEEVAFWNDLLSKEAAKKPPKIKHAEL
notes: Tested in E. coli cleared lysate; Homotrimer; also called gamma-PLE
B9: APLE wild-type (enzyme)
chain: GQPASPPVVDTAQGRVLGKYVSLEGLAQPVAVFLGVPFAKPPLGSLRFAPPQPAEPWSFVKNTTSYPPMCCQEPIGGQMLSDLFTNRKERLIPEFSEDCLYLNIYTPADLTKRGRLPVMVWIHGGGLVVGGASTYDGLALAAHENVVVVAIQYRLGIWGFFSTGDEHSRGNWGHLDQVAALHWVQENIANFGGDPGSVTIFGESAGGESVSVLVLSPLAKNLFHRAISESGVAFTAGLVRKDMKAAAKQIAVLAGCKTTTSAVFVHCLRQKSEDELLDLTLKMKFFALDLHGDPRESHPFLTTVVDGVLLPKMPEEILAEKDFNTVPYIVGINKQEFGWLLPTMMGFPLSEGKLDQKTATSLLWKSYPIANIPEELTPVATDKYLGGTDDPVKKKDLFLDLMGDVVFGVPSVTVARQHRDAGAPTYMYEFQYRPSFSSDKKPKTVIGDHGDEIFSVFGFPLLKGDAPEEEVSLSKTVMKFWANFARSGNPNGEGLPHWPMYDQEEGYLQIGVNTQAAKRLKGEEVAFWNDLLSKEAAKKPPKIKHAEL
notes: Homotrimer on native gel; also called pig liver esterase

One data set concerns the molecule itself. Kind of data set: blue native gel electrophoresis, self-association. How it is done: Blue native gel electrophoresis (BN-PAGE) of bacterial lysates containing APLE was performed according to the method described by Reisinger and Eichacker (2006), “Analysis of membrane protein complexes by blue native PAGE”, Proteomics 6 Suppl 2, 6-15, with the following modifications. Aliquots containing 200 μg of soluble proteins were diluted with 10 mM Tris/HCl pH 7.4 to a final volume of 95 μl. Five μl of loading buffer was added to the sample before applying them on an 8-16% linear gradient gel. Gradient gels (16×20 cm) were created with the help of a Bio-Rad Gradient Former model 485 (Bio-Rad Laboratories, Vienna, Austria). Electrophoresis was performed at a constant current of 24 mA per gel at 4° C. After electrophoresis, gels were incubated in 0.1 M potassium phosphate buffer, pH 7.0, for 20 min at room temperature. For the in-gel-detection of esterase activity, the substrate fluorescein diacetate (FDA) was dissolved in acetone [4 mg/ml] and applied on a Biodyne® A membrane ([…], 16×20 cm) (Pall Life Science, Michigan, USA). After evaporation of acetone, the membrane was brought in close contact with the gel which was placed on a glass plate. The gel-membrane sandwich was incubated at 37° C. for 30 min before detection of fluorescent bands.
Esterase activity was visualized herein through staining with fluorescein resulting from hydrolysis of fluorescein diacetate (FDA). All 7 wild-type enzymes are trimers of about the same height on the native gel, whereas the V263D mutants show bands on the lower third of the gel. Multiple bands were excised and analyzed on an SDS-PAGE gel. Multiple bands result in one clear band at the size of about 58 kDa (data not shown). It is assumed that these bands result from different conformations of the same monomer.
Turning to B1, the binding result was “no binding”.

Consider B2, for which the binding result was “no binding”.

Turning to B3, the binding result is listed as “no binding”.

Take B4: the binding result was “no binding”.

For B5, the binding result is “no binding”.

B6: the binding result is “no binding”.

As for B7, the binding result is recorded as “no binding”.

Another data set deals with the molecule itself. Kind of data set: blue native gel electrophoresis, self-association (homotrimer). As for the experimental part: Blue native gel electrophoresis (BN-PAGE) of bacterial lysates containing APLE was performed according to the method described by Reisinger and Eichacker (2006), “Analysis of membrane protein complexes by blue native PAGE”, Proteomics 6 Suppl 2, 6-15, with the following modifications. Aliquots containing 200 μg of soluble proteins were diluted with 10 mM Tris/HCl pH 7.4 to a final volume of 95 μl. Five μl of loading buffer was added to the sample before applying them on an 8-16% linear gradient gel. Gradient gels (16×20 cm) were created with the help of a Bio-Rad Gradient Former model 485 (Bio-Rad Laboratories, Vienna, Austria). Electrophoresis was performed at a constant current of 24 mA per gel at 4° C. After electrophoresis, gels were incubated in 0.1 M potassium phosphate buffer, pH 7.0, for 20 min at room temperature. For the in-gel-detection of esterase activity, the substrate fluorescein diacetate (FDA) was dissolved in acetone [4 mg/ml] and applied on a Biodyne® A membrane ([…], 16×20 cm) (Pall Life Science, Michigan, USA). After evaporation of acetone, the membrane was brought in close contact with the gel which was placed on a glass plate. […]
Esterase activity was visualized herein through staining with fluorescein resulting from hydrolysis of fluorescein diacetate (FDA). […] Multiple bands were excised and analyzed on an SDS-PAGE gel. […]
For the protein B8, the binding result is reported as “binds”.

For B9, the binding result is reported as “binds”.
